Test [1] addresses major histocompatibility complex class II of H-2^d (A^d) on macrophages of Balb/c mice (mouse (endogenous in Balb/c peritoneal macrophages)). As to the kind of experiment: flow cytometry on cells; as a1, but L. donovani infected macrophages (I-MΦ) of Balb/c mice.
The target is the same in test [2].

These results are taken from article PMC4877013.

In test [1], “LACK_(156-173) peptide (amino acid residues 156–173 of LACK protein, Leishmania homolog of receptors for activated C-kinase)” returned an MFI of LACK (156-173)-A^d at '0' h in I-MΦ against N-MΦ of 30 % less. Further, in test [2], the rate of decrease of IL-2 production by anti-LACK T cell hybridoma LMR7.5 cocultured with peptide pulsed, fixed I-MΦ (0 to 12 h after the pulse) turned out to be 17.1; the rate of decrease of IL-2 production by anti-LACK T cell hybridoma LMR7.5 cocultured with peptide pulsed, fixed I-MΦ-AL (0 to 12 h after the pulse) was determined as 15.8; the rate of decrease of IL-2 production by anti-LACK T cell hybridoma LMR7.5 cocultured with peptide pulsed, fixed N-MΦ (0 to 12 h after the pulse) is 1.29.
